assay: yeast display, Sf9 membrane polyspecificity reagent, FACS + sequencing; frameworks hold sequencing errors
Procedure, shortened: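 Galactose-induced (36–48 hours) yeast carrying a synthetic nanobody display library were exposed to 10% biotinylated, detergent-solubilized Sf9 membrane reagent at 4 °C for 1 hour. FACS followed streptavidin microbead enrichment, using low and high (top ~1%) gates for expression (anti-HA) and reagent binding (streptavidin). Colony PCR, MiSeq 2 × 250 sequencing and CDR-length filtering followed. Labels for polyreactivity reflect the gate of origin.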

Sequence | polyreactivity (PSR sort gate)
QVLLVESGGGLVQAGGSLRLSCAASGRTLRGYAMGWYRQAPGKERELVAAITWSGGSTYYADSVKGRFTISRDHAKNTVYLQMNSLKPEDTAVYYCNARSYPDLYDYWGQGTQVTVSS | low polyreactivity
QVLLVESGGGLVQAGGSLRLSCAASGYTFHVNAMGWYRQAPGKERELVAAINTSGDSTYYADSLKGRFTISRDNAKNTVYLQMNSLKPEDTAVYYCNAKGSVTRIGMEYDYWGQGTQVTVSW | low polyreactivity
QVLLVESGGGLVQAGGSLRLSCSASGSTSRFYAMGWSRQEPGKERELVAAINKSGTRTYYADSVKGRFTISRDNAKNTVYLQMNSLKPEDTAVYYCAADQGTYGYGGFYYWGLGTQVTVSS | high polyreactivity
QVLLVESGGGLVQAGGSLRLSSAASGSTYRNAMGWYRQAPGKERELVAAISSSGGRTYYADSVKGRFTISRDNAKNTVYLQMNSLKPDDTAVYYCAAPRFAAPSRIGYDWGQGTQVTVSS | high polyreactivity
QVLLVESGGGLVQAGGSLRLTCTPYGSIFGYYVMGRYRQPPGKEREFVAAISYGGGSTYYADSVKGRFTISRDNAKNTVYLQMNSLKPEETAVYYCNTDIYSDYVGEEYEYWGQGSQVTVSS | high polyreactivity
QVLLVESGRGIVQAGGSLRLSCAASGGTFQPYAMGWYRQDTGKERELVAANSLNTGSTYYADSVKGRFTISRDNAKNTVYLQMNSLKPEDTAVDYCAVKWFYGGYDYWGQGTQVTVSS | low polyreactivity
QVLMQESGGGLVQAGGSLRLSCAASGNIFSAGGMGWYRQAPVNERELVAGIGTATSTNYADSVKGRFTFSRDNAKNTVYLQMNSLKREDTAVYYCAAAYYSGLSHWYWGQGTQVTVSS | low polyreactivity
QVLQVESGGGVVQAGGSLRLSCSASGSTIGNKTMGWYRQAPGKEREFVAAITESGGGTYADSVKGRFTISRDNAKNTVYLQMNSLKPEDNAVYYSAAVWYIWPFAFYYWGEGTQVTVSS | high polyreactivity
QVNLVDSGGGLVQAGGSHRLSCAASGSIVSGNAMGWYRQEPGKERELVATISWSGGSTNYADSVKGRFTISRDNAKNTVYLQMNSLKPEDTAVYYCNAYVAYWGWVYRVDYWGQGTQVTVSS | low polyreactivity
QVNLVESGGGLVQAGGSLRLSCAASGIIFRSYAMGWYRPAPGKARELVADITSTGTSTYYADSVKGRFTISRDNAKNTVYLQMNSLKPEDNAVYYCNADRFGFYPQRDYWGQGTQVTVSW | high polyreactivity
QVPLVEKGGGLVQAGGSLRLSCAASGFTIGYYAMGWYRQAPGKERELVAASTWRGDTTYYADSVKGRFTISRDNAKNTVYLQMNSLKPEDTAVYYCAAEYEVYFDWSYYYWGQGTQVTVSS | high polyreactivity
QVPLVESGGGIVQAGGSLRLSCAASGRTFRYNAMGWDRQAPGKEREKVAAITYGGGSTYYADSVKGRFTISRDNEKNTVYLQMNILKPEDTAVYYCATRGVSPSRPGYYCGQGTQVTVSS | high polyreactivity
QVPLVESGGGLVQAGCSLRLSCAASGSIFTRDAMGWYRPAPGKERELVAAISAGGGTTYYADSVKGRFTNSRDNAKNTVYLLMNSLKPEDSSVFYCAKRSRSGYYADDSWGHGTQVTVSS | high polyreactivity
QVPLVESGGGLVQAGGSLRLSCAASGRTFGIYAMGWYRQEPGKERELVATISWRGGSTNYADSVKGRFTISRDNAKNTVYLQMNSLKPEDTAVYYCAADPCGFGYPYLTRGTDGYDYWGQGTQVTVSS | low polyreactivity
QVPLVESGGGLVQAGGSLRLSCAASGSICGGYAMGWYRQAPGKERELVAGITYSGDSTYYADSVKGRFTISRDNAKNTVYLQMNSLKPEDTAGYYCNADQRVDHDDFDYWGQGTQVTVSS | low polyreactivity
QVPLVESGGGLVQAGGSLRLSCAASGSIFAPYTMGWYRQAPGKERELVAAISVTTGITYYADTLKGRFTISRDNAKNTVYLQMNSLKPEDTGVYYCAAELYKSLWYEYWGQGTQVTVSS | low polyreactivity
QVPLVESGGGLVQAGGSLRLSCAAYGFTFWTYAMGWYRQAPGKDRELVAAISRSAGRTYYADSVKGRFTISRDNAKNTVYLQMNSLKPEVSAVYYCNARAGYERYGYWGQGSQVTVSS | high polyreactivity
QVQFEESGGGLVQAGGSLRLSCAASGSTFQGYAMGWSRQAPGKERELVAAISSGGSTNYADSVKGRFTISRDNAKNTVYLQMNSLKPEDTAVYYCNVDLTTVGHWYYYRPGYDYWGQGTQVTVSS | low polyreactivity
QVQHEESGGGLVQAGGRLRLSCAASGRIFKQYALGGYRQAPGKERELVAAISVRGGITYYADSVKGRFTISRDNAMNTVYLQMNSLKPEDTAVYYCAKRSFRTHTYDYWGHGTQVTVSS | low polyreactivity
QVQHEESGGGLVQAGGSLRLSCAASGSIIRYYPMGWYRQATGKQRELVAAISRDDSRTYYADSVRGRFTISLDNAKNTVYLQMNSLKPEDTAVYYCAADSSRYTRYLYYYWGQGTQVTVSS | high polyreactivity
QVQHEESGGGLVQAGGSLRLSSAASGSTFVDYDMGCYRQAPGKVRELVAGITTGGSTNYADSVKGRFTISRDNALNTVYLQLKRLKPEDTAVYYCNSDSYTNLVPDYLYYWYEYWGQGTQVTVSS | low polyreactivity
QVQHEESGVGLVQAGGRLRVSCAASGSTFAANTMGWYRTAPGKERELVAAITVRGGSTYYADSVKGRFSISRDNAKNTVYLQMISLKPEDTAVYYCAAERPPYGYLVVGFVSTQYYYWGQGTQVTVSS | low polyreactivity

Sequence | polyreactivity (PSR sort gate)
QVQHGESGGGIVQAVVSLRLSCSASGFTFYYYPMGWYRQAPGKERELVAAIDTGGSTNYADSVKGRFTMSRDNAKNTVYLQMNSLKPEDTAVYYCNALQPGLGSPLGEYDYWGQGTQVTVSS | low polyreactivity
QVQHVDSGGGIVQAGGSLRLSCAPSGRTILRYTMGWYRHAPGKERELVASITRGGSSYYADSVKGRFTISRDNAKNTVYLQMNSLKPEDTAVYYCAARRYYGVYYAFYYWGQGTQVTVSS | high polyreactivity
QVQHVDSGGGLVQAGGSLRLSCAASGSTFQLYAMGRDRQAPGKERELVASISWSGGSTYYADSVKGRFTISRDNAKNTVYLQMNSLKPEDTAVYSCNDDFWWRYRPGAVFPSYGYWGQGTQVTVSS | low polyreactivity
QVQHVDSGGGLVQAGGSLSLSCAASGSIFWPNTMGWYRQARGKERELVATISSGADTSYADSVKGRFTISRDNAKNTVYLQMNSLKPADTAVYYCAIRITVDDDHPRAQTFNYCGQGTQVTVSS | low polyreactivity
QVQHVDSGVCLVQAGGSLRLSCDASGSIFGSYAMGWYRQPPGKERELVAAISKSVGNTYYADSVKGRFTISRDNAKNTVYLQMNSLKPEVTAVYYCAAYGFYRWRGYDYWGQGTQVTVSS | high polyreactivity
QVQHVESAGGLVQAGGSLRLSCAASGSIFWYAMGWYRQAPGKERELVDGISRGGSTYYADSVKGRFTISRDNAKNTVYLQMNSLKPEDTAVYYFNTAGYYGTPYNYWGQGTQVTVSS | low polyreactivity
QVQHVESGGALVQAGGILRLSCAASGYTFYVYAMGWYRQAPGKERELVAAISGGSNTYYADSVKGRFTISRDNGKNTVYLQMNSLKPEDTAVYYCAKSSTTYRQRARYDYWGQGTQVTVSS | high polyreactivity
QVQHVESGGALVQAGGSLRLSCAASGSIFGDYAMGWYRQAPGKERELVAAITSDRDTYYADSVKGRFTISRDNAKNTVYLQMNSLKPEDTAVYYCNATYGGPYFIQYDYWGQGTQVTVSS | low polyreactivity
QVQHVESGGALVQAGGSLRLSCAASGSTFIKYAMGWYRQAPGKERELVAAISRSGASTYYADSVKGRFTLSRDNEKNTVYLQMKSLKPEDTAVYYCAARRRYLDHGYWGQGTQVTVSS | high polyreactivity
QVQHVESGGCLVQAGGILRLSCAASGSIFQSNTMGWYRQAPGKVRELVAYISNGGTTTYANSVKGRFTISRDNAKTTVYLQMNSLKPEDTAVYYCATYYWQYYEYDYWGQGTQVTVSS | low polyreactivity
QVQHVESGGCLVQAGGSLRLSCAASGLIIKSYVMGWYRQAPGKERELVAGITGSGGTTYYADSVKGRFTISRDNAKNTVDLQMNSLKPEDTAVYYCDARSRSRPKYDYWGQGTQVTVSS | high polyreactivity
QVQHVESGGCLVQAGGSLRLSCAASGSIFYRYAMGWYRQGPGKESQLVAAIRRGGSTNYADSVKGRFTISRDNAKYTVSLQMNSLKPEDTAVYYCAAGRFTYAAQSYEYWGQGTQVTVSS | high polyreactivity
QVQHVESGGGIVQAGGSLRLSCPASGSIYRKYAMGWSRQTPGKERELVAAIRSSGGSTYYADSVKGRFTISRDNAKNTVYLQMNSLKPEDTAVYYCASTYYRPSRYDYCGQGTQVTVSS | high polyreactivity
QVQHVESGGGLFKAGGTLRLSCAASGRTIYPYAMVLYIQAPGKESELVAAIRWSGGSTYYADSVKGRFTISRDNSKNTVYLQMNSLKPVDTAVYYCNADWKSYRGPIVDYWGQGTQVSVSS | low polyreactivity
QVQHVESGGGLGQAGGSLRLSCAASGIIFPRYKAWYRPAPGKDRELVAAIRWSSDDTNYADSVKGRFTISRDNAKNTVYLQMNSLKPEDTAVYYCAADSYYDRTIQFEFSARTYDYWVQGTQVTVSS | low polyreactivity
QVQHVESGGGLLQAGGSLRLSCAASGITFFEYAMGWYRQAPGKERELVAVITSVGSTNYADSVKGRFTISRDNAKNTVYLQMNSLKPVDTAVYYCNARLVKYRWWYDYYYWGQGTQVTVSS | low polyreactivity
QVQHVESGGGLVQAAGSLRLICYASGSIFGSYAMGWYRPAPGKERELVAAISSRGSRTYYADSVKGRFTISRDNAKNTVYLQMNSLKPEDTAVYYSNAGALTNYDYWGQGTQVTVSS | high polyreactivity
QVQHVESGGGLVQAAGSLRLSCAASGTIFYWYTMGWYRQARGKERELVATITGSGSSTTYADSVKGRFTISRDNAKNSVYLQMNSLKPEDTAVYYCAKVYYIGIRGEYDYWGQGTQVTVSA | low polyreactivity
QVQHVESGGGLVQAGGNLRLSCPASGRTIYSYTMGWYRQTPGKERELVAAINRSGGRTYYADSVKGRFTISRDNAKNTVYLQMNSLKQEDTAVYYGNALEYYRYDYWGQGTQVTVSS | high polyreactivity
QVQHVESGGGLVQAGGRLSLICSASGGNIKFNAMGWYRQAPGKERELVAAITDGGSTYYADSVKGRFTISRDNAKNTVYLEMNSLKAEDTAVYYCNAEGVSLYGYDSGVDSGEDYWGQGTQVTVSS | low polyreactivity
QVQHVESGGGLVQAGGSLLLSCAASGSIFASYAMGWYRQAPGKEREFVASISRSGGRTYYADSVKGRFTISRDNAKNTVYLQMKSLKPEDTAVYYCAAQPSSYVYYRQPFHYWGQGTQVTVSS | high polyreactivity
